Results taken from paper PMC11139983.
Blank lines part the entries; values can stand above or below the molecule they belong to.

Tests used:
[1] = molecular target: VUN701; experiment: BRET-based β-arrestin2 recruitment competition assay (functional KB); conditions: 90% effective concentration of CXCL12 determined for each ACKR3 variant; parent: est. 0.0; read off a plot
[2] = molecular target: atypical chemokine receptor 3 (ACKR3) (human)
[3] = molecular target: atypical chemokine receptor 3 (ACKR3) (human); remark: listed apart in the source

atypical chemokine receptor 3 (ACKR3) (human), sequence (chain, as listed by the source): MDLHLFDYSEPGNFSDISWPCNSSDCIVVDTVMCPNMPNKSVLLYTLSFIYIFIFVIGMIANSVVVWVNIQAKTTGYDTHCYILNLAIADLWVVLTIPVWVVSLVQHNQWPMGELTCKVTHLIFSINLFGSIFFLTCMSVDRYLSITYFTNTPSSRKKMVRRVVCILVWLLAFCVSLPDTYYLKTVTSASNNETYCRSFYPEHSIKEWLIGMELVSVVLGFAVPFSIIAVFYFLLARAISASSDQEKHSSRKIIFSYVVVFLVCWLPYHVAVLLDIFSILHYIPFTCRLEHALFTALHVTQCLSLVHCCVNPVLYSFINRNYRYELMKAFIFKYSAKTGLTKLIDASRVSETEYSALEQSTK

Molecule: atypical chemokine receptor 3 (ACKR3) E290A
log10 ratio [1]: -1.8

Molecule: atypical chemokine receptor 3 (ACKR3) D275A
log10 ratio [1]: -1.8

Next, values leading:

log10 ratio [1]: -2.4
Molecule: atypical chemokine receptor 3 (ACKR3) F285A

IC50 of inhibition of CXCL11-induced β-arrestin2 recruitment to ACKR3 (BRET, HEK293T); blocks m4 with m2 [2]: 105 nM | IC50 of inhibition of CXCL12-induced β-arrestin2 recruitment to ACKR3 (BRET, HEK293T); blocks m3 with m2 [2]: 157 nM | KB (Cheng-Prusoff) from inhibition of CXCL11-induced β-arrestin2 recruitment to ACKR3 (BRET); blocks m4 with m2 [2]: 23.3 nM | KB (Cheng-Prusoff) from inhibition of CXCL12-induced β-arrestin2 recruitment to ACKR3 (BRET); blocks m3 with m2 [2]: 9.8 nM | pKB (Cheng-Prusoff) from inhibition of CXCL11-induced β-arrestin2 recruitment to ACKR3 (BRET); blocks m4 with m2 [2]: 8.64 | KB from Schild analysis of CXCL12-induced β-arrestin2 recruitment to ACKR3 (BRET); blocks m3 with m2 [3]: 18.2 nM
B1: VUN701 (VHH)
VHH: QVQLVESGGGLVQAGGSLRLSCAASGSTFSLHLMGWYRQAPGKQREVVATSGSGGDTNYADSVKGRFTISRDNDKNTVDLQMNNLKPEDTADYYCRAQQKIGRDTFRDYWGQGTQVTVSS
